Source: paper PMC6474823 (Molecular cell, 2019)

Legend:
[1] = target: Src^CD WT (catalytic domain of Src, residues 261-536) (human, UniProt P12931 261-536); test: pull-down
[2] = target: Src^FL WT (full-length Src, residues 1-536, non-phosphorylated, lacking an N-terminal myristoyl group) (human, UniProt P12931 1-536); test: pull-down

B1: SH4^SNAP WT (residues 1-18 of Src fused to the N-terminus of SNAP-tag through a LPETG linker) (domain or fragment, human)
chain: MGSNKSKPKDASQRRRSLLPETG
**Q.** Which results are given for B1?
**A.** binding result [1]: binds; binding result [2]: binds
